In PMC4379099 (PLoS Pathogens, 2015):

Legend:
[1] = biological target: EFR::GFP (full-length Arabidopsis EFR with a carboxyl-terminal GFP fusion, transgenic rice) (Arabidopsis) (UniProt C0LGT6)
[2] = biological target: T1, EFR::XA21::GFP chimeric receptor (EFR ectodomain 1-649 fused to XA21 651-1025, carboxyl-terminal GFP, transgenic rice) (Arabidopsis | rice (Oryza longistaminata)) (UniProt C0LGT6)
T1 sequence: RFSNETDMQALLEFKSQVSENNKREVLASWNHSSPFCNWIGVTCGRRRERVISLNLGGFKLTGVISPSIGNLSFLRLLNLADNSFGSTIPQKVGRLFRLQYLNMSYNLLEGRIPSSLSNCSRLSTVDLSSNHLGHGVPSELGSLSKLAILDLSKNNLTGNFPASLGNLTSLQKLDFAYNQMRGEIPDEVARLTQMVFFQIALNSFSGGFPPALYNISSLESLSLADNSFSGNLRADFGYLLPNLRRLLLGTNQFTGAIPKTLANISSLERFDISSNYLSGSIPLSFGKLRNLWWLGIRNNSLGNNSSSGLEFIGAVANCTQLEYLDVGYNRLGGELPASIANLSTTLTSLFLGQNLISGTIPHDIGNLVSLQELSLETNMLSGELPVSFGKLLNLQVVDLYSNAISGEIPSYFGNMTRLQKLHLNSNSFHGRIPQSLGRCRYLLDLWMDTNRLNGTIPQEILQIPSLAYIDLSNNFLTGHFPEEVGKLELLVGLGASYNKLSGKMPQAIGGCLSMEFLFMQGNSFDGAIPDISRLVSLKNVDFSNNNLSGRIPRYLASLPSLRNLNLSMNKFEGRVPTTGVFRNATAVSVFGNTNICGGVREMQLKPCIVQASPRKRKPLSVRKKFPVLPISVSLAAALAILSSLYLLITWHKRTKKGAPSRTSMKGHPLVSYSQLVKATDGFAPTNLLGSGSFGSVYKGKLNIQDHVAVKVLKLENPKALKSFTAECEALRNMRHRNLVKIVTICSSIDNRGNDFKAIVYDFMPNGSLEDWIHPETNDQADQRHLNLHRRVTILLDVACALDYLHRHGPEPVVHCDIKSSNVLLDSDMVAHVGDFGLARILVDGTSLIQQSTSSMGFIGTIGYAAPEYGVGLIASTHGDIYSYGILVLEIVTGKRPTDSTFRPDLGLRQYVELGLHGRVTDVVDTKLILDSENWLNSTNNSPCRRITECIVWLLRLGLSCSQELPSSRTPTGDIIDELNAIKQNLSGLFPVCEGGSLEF

[3] = tested on: MAP kinases; type: cell-based, rice

Substance | EC50 of ROS production in mature rice leaves (dose response curve) [1] [pM] | EC50 of ROS production in mature rice leaves (dose response curve) [2] [pM] | MAP kinase activation (phospho p44/42 bands, ~47 kDa and 40 kDa) [3]
elf18_(E.coli) (from UniProt P0CE47 1-18) (peptide) | 300 | 300 | 
chitin |  |  | increase of two distinct bands
